For the assay, the target named is GMPCPP-stabilised rhodamine microtubules. Kind of assay: single-molecule TIRF motility assay.

As for “CENP-E483 with a GCN4 leucine zipper domain fused to its C terminus (from UniProt Q02224 1-483)”, the residency time on the microtubule worked out at 6.36 s.

Substance “full-length human CENP-E-mNeonGreen, Q02224 1-2701” registered a landing rate (events μm^−1 min^−1) of 0.147, a processive landing rate (events μm^−1 min^−1) of 0.009 and a residency time on the microtubule of 37.1 s.
